Test results reported in publication PMC8087788, “Parallel G-quadruplexes recruit the HSV-1 transcription factor ICP4 to promote viral transcription in herpes virus-infected human cells”.

Tests used:
[1] = target: T1, ICP4 (nuclear extract) (HSV-1 strain F) (UniProt P08392); experiment: pull-down; conditions: XL pull-down: oligos folded in 20 mM PB pH 7.4, 80 mM KCl, 4 C, 45 min, wash 50 mM Tris-HCl pH 7.5, 150 mM NaCl; ICP4 EMSA: 20 mM Tris-HCl pH 8, 25 mM KCl …
T1 sequence: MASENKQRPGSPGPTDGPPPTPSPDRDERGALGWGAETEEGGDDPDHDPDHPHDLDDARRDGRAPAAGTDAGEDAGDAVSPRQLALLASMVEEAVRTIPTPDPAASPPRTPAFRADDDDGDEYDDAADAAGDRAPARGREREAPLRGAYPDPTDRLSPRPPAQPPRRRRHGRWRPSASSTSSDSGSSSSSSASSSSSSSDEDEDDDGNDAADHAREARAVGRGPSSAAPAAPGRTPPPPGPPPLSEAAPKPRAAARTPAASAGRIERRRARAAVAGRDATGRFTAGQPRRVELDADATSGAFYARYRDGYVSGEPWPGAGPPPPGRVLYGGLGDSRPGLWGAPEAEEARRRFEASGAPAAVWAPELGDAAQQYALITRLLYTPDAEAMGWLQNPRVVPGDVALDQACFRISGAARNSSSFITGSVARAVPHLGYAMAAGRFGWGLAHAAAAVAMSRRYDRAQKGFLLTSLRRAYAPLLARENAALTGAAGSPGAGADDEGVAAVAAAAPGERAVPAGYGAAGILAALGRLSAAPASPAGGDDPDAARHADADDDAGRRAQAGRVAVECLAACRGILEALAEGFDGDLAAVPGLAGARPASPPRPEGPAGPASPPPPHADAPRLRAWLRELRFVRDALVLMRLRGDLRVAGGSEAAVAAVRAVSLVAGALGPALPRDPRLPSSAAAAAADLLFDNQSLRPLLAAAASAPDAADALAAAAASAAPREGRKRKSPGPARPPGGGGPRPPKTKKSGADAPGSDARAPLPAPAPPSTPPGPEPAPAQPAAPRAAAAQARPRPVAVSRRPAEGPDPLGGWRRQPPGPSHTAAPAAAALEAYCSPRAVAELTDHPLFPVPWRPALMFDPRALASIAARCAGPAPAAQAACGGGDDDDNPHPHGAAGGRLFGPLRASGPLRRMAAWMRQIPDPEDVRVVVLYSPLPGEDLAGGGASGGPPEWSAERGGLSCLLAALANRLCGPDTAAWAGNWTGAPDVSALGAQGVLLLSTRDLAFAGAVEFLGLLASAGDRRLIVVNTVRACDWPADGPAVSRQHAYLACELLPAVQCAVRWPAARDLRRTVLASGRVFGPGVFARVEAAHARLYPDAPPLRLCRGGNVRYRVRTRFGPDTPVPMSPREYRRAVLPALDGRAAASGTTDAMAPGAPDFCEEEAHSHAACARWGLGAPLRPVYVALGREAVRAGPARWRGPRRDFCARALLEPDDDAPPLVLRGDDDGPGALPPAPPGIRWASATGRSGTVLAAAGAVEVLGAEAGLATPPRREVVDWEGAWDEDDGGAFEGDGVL

[2] = target: T2, ufICP4 (ultrafiltrated ICP4) (HSV-1 strain F, UniProt P08392 1-1298); experiment: EMSA; 5-10x ufICP4; XL pull-down: oligos folded in 20 mM PB pH 7.4, 80 mM KCl, 4 C, 45 min, wash 50 mM Tris-HCl pH 7.5, 150 mM NaCl; ICP4 EMSA: 20 mM Tris-HCl pH 8, 25 mM KCl, 1.5; conditions: protein: native, chain copies: 2, label: 5' FAM
T2 sequence: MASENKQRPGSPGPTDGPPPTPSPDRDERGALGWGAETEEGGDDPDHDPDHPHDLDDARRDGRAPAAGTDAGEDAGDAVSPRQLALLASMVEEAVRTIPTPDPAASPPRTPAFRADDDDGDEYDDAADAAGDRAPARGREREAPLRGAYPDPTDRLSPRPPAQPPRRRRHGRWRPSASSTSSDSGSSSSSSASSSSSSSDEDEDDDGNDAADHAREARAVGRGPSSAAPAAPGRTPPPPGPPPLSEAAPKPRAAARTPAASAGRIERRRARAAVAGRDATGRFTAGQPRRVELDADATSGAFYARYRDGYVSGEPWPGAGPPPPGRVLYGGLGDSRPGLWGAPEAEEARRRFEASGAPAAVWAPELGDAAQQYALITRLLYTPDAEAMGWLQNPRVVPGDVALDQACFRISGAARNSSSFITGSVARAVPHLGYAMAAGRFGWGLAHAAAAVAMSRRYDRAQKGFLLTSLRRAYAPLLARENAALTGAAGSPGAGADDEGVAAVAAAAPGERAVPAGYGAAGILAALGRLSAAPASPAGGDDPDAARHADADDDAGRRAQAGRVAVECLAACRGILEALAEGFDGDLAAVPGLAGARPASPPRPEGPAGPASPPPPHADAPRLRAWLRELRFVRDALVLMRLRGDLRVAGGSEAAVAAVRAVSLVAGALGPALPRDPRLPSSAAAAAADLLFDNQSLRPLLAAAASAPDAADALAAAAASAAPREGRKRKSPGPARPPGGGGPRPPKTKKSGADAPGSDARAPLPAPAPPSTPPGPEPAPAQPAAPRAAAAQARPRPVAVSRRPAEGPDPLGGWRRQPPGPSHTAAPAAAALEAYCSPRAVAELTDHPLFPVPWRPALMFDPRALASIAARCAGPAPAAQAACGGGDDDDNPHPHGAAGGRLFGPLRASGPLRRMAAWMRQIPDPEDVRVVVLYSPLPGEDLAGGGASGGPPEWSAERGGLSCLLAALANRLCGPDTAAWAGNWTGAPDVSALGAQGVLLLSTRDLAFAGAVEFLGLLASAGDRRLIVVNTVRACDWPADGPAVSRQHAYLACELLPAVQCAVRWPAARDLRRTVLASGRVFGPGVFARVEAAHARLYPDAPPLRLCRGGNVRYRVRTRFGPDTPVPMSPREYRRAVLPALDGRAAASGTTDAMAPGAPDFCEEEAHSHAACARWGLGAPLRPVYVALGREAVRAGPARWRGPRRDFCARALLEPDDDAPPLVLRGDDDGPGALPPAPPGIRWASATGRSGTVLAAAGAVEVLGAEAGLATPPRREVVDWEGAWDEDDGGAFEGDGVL

ICP8 [3] = target: T3, ICP8 (HSV-1, UniProt P04296 1-1196); experiment: EMSA; 0-3 ug ICP8; XL pull-down: oligos folded in 20 mM PB pH 7.4, 80 mM KCl, 4 C, 45 min, wash 50 mM Tris-HCl pH 7.5, 150 mM NaCl; ICP4 EMSA: 20 mM Tris-HCl pH 8, 25 mM KCl, 1.5; conditions: protein: recombinant; tags: GST; label: 32P (Methods) / 33P
ICP8 [4] = target: T3, ICP8; experiment: EMSA; 0-3 ug ICP8; Na+ and K+ buffers; XL pull-down: oligos folded in 20 mM PB pH 7.4, 80 mM KCl, 4 C, 45 min, wash 50 mM Tris-HCl pH 7.5, 150 mM NaCl; ICP4 EMSA: 20 mM Tris-HCl pH 8, 25 mM KCl, 1.5; conditions: protein: recombinant; tags: GST; label: 32P (Methods) / 33P; G4

T3 sequence (P04296 whole entry): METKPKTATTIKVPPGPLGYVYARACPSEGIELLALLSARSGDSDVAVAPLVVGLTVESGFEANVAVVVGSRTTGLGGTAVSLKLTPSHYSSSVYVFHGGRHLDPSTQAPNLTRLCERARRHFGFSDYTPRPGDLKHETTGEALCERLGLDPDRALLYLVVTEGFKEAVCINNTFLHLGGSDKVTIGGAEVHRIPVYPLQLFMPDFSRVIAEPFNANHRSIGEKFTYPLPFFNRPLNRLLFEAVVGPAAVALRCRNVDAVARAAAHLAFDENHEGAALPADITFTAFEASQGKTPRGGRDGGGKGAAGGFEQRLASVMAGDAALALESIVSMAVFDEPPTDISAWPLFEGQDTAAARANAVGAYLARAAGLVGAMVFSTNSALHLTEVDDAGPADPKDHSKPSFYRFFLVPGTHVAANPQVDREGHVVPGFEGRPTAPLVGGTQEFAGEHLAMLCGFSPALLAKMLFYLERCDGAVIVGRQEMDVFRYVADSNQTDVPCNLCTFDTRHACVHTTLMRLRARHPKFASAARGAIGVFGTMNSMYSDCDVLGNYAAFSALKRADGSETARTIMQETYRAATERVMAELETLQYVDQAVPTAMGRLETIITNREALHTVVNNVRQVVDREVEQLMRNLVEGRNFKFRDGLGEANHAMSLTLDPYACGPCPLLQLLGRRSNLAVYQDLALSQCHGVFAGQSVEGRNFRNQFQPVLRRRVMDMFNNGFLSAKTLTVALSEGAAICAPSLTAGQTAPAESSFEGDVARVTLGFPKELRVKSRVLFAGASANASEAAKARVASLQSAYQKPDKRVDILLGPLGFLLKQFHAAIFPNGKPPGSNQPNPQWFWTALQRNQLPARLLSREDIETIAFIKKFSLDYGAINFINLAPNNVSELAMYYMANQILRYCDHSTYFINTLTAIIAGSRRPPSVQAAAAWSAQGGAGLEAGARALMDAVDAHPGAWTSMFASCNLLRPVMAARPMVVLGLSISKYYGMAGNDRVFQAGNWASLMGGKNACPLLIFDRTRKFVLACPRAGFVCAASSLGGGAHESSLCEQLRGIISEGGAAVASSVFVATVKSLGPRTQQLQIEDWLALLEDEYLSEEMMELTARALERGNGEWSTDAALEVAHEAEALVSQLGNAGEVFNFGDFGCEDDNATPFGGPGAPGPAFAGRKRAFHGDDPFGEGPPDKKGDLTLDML

Molecule | binding signal [1] | binding result (ICP8 [4]) | other results
TTTTTGGGGAGGGTGGGGAGGGTGGGGAAGG [B-myc] | 2.5 fold vs IE3 | – | –
TTTTTGGGGGCGAGGGGCGGGAGGGGGCGAGGGGGGGGGCGAGGGGCGGGAGGGGGCGAGGGG [B-un2L2] | 2.5 fold vs IE3 | – | –
TTTTTCCGATCGTCCACACGGAGC (double strand) [B-IE3 (ICP4 consensus; IE-CS)] | – | – | binding signal (fold vs IE3 (reference)) [1]: 1
CGGGGCGGGCCGGGGGCGGGG [B-VEGF] | 2.5 fold vs IE3 | – | –
GGGGGCGAGGGGCGGGAGGGGGCGAGGGG (structured_DNA) [F-un2] | – | – | binding result ([2]; G4): binds
GGAGTCGTGTCGCGTGTCGAGCGTGTGTAGTGG (ssDNA) [F-G-rich-scrambled] | – | – | binding result ([2]; unfolded): no binding
TTTTTTTTTTTTTTTTTTTTTTTTTTTTTT (ssDNA) [PolyT (T30)] | – | – | binding result (ICP8 [3]): binds
GGGGGCGAGGGGCGGGAGGGGGCGAGGGG (structured_DNA) [un2 (radiolabelled)] | – | no binding | –
GGGAGGCGTGGCCTGGGCGGGACTGGGG (structured_DNA) [LTR-III (radiolabelled)] | – | no binding | –
GGGTTAGGGTTAGGGTTAGGG (structured_DNA) [hTel (radiolabelled)] | – | no binding | –
